This is an account of results in publication PMC8586334, “Distinct RPA domains promote recruitment and the helicase-nuclease activities of Dna2” (Nature Communications, 2021).

The target of the test is Rfa1-AB-Y193D (S. cerevisiae). Put plainly: cell-based or functional assay.

B1: S. cerevisiae Dna2-E675A (nuclease-dead) (enzyme, UniProt P38859 1-1522, looked up)
chain: MPGTPQKNKRSASISVSPAKKTEEKEIIQNDSKAILSKQTKRKKKYAFAPINNLNGKNTKVSNASVLKSIAVSQVRNTSRTKDINKAVSKSVKQLPNSQVKPKREMSNLSRHHDFTQDEDGPMEEVIWKYSPLQRDMSDKTTSAAEYSDDYEDVQNPSSTPIVPNRLKTVLSFTNIQVPNADVNQLIQENGNEQVRPKPAEISTRESLRNIDDILDDIEGDLTIKPTITKFSDLPSSPIKAPNVEKKAEVNAEEVDKMDSTGDSNDGDDSLIDILTQKYVEKRKSESQITIQGNTNQKSGAQESCGKNDNTKSRGEIEDHENVDNQAKTGNAFYENEEDSNCQRIKKNEKIEYNSSDEFSDDSLIELLNETQTQVEPNTIEQDLDKVEKMVSDDLRIATDSTLSAYALRAKSGAPRDGVVRLVIVSLRSVELPKIGTQKILECIDGKGEQSSVVVRHPWVYLEFEVGDVIHIIEGKNIENKRLLSDDKNPKTQLANDNLLVLNPDVLFSATSVGSSVGCLRRSILQMQFQDPRGEPSLVMTLGNIVHELLQDSIKYKLSHNKISMEIIIQKLDSLLETYSFSIIICNEEIQYVKELVMKEHAENILYFVNKFVSKSNYGCYTSISGTRRTQPISISNVIDIEENIWSPIYGLKGFLDATVEANVENNKKHIVPLAVKTGKSRSVSYEVQGLIYTLLLNDRYEIPIEFFLLYFTRDKNMTKFPSVLHSIKHILMSRNRMSMNFKHQLQEVFGQAQSRFELPPLLRDSSCDSCFIKESCMVLNKLLEDGTPEESGLVEGEFEILTNHLSQNLANYKEFFTKYNDLITKEESSITCVNKELFLLDGSTRESRSGRCLSGLVVSEVVEHEKTEGAYIYCFSRRRNDNNSQSMLSSQIAANDFVIISDEEGHFCLCQGRVQFINPAKIGISVKRKLLNNRLLDKEKGVTTIQSVVESELEQSSLIATQNLVTYRIDKNDIQQSLSLARFNLLSLFLPAVSPGVDIVDERSKLCRKTKRSDGGNEILRSLLVDNRAPKFRDANDDPVIPYKLSKDTTLNLNQKEAIDKVMRAEDYALILGMPGTGKTTVIAEIIKILVSEGKRVLLTSYTHSAVDNILIKLRNTNISIMRLGMKHKVHPDTQKYVPNYASVKSYNDYLSKINSTSVVATTCLGINDILFTLNEKDFDYVILDEASQISMPVALGPLRYGNRFIMVGDHYQLPPLVKNDAARLGGLEESLFKTFCEKHPESVAELTLQYRMCGDIVTLSNFLIYDNKLKCGNNEVFAQSLELPMPEALSRYRNESANSKQWLEDILEPTRKVVFLNYDNCPDIIEQSEKDNITNHGEAELTLQCVEGMLLSGVPCEDIGVMTLYRAQLRLLKKIFNKNVYDGLEILTADQFQGRDKKCIIISMVRRNSQLNGGALLKELRRVNVAMTRAKSKLIIIGSKSTIGSVPEIKSFVNLLEERNWVYTMCKDALYKYKFPDRSNAIDEARKGCGKRTGAKPITSKSKFVSDKPIIKEILQEYES
On to B1, for which the “unwinding of 2.2-kbp-long dsDNA by Dna2-E675A, stimulation by the Rfa1-AB variant, against wild type Rfa1-AB” value was roughly 2.5 fold less efficient.
